This assay addresses T1, glutamate dehydrogenase (endogenous, 293T cells) (human, UniProt P00367 54-558, ADP-ribosylated (32P-labelled) in the mitochondrial labelling experiments; site not stated).
T1 construct: Endogenous protein in 293T lysate or mitochondria; also called GDH
Put plainly: anti-FLAG immunoprecipitation from 32P-NAD labelled mitochondria of 293T cells overexpressing Sirt4-FLAG, autoradiography. Here is the method:
FIG. 5. Glutamate dehydrogenase is ADP-ribosylated in vivo and interacts with Sirt4. FIG. 5A. Mitochondria (50 mg) from 293T cells were incubated with [³²P]-NAD at 37° C. for 30 min. Proteins were separated by SDS-PAGE, transferred to a nitrocellulose membrane, and radioactivity was measured by exposure to film. FIG. 5B. Mitochondrial proteins were ADP-ribosylated as described for FIG. 5A, and lysis was performed in NP-40 buffer containing 10 mM DTT and 0.5 mM EDTA. Clarified lysate was incubated with protein A resin that had been pre-incubated with antibodies against hSirt4, ANT or glutamate dehydrogenase (GDH). FIG. 5C. 293T cells were transiently transfected with 10 μg of pCMV (V) or phSirt4-FLAG (4). Cells were harvested and lysed in NP-40 buffer containing protease inhibitors and 1 mM DTT. […] An endogenous interaction between Sirt4 and glutamate dehydrogenase was determined in MIN6 cells. […] Proteins were separated by SDS-PAGE, transferred to nitrocellulose membrane, and the radioactivity was measured by exposure to x-ray film.
Mitochondria from 293T control or Sirt4-FLAG overexpressing cells were incubated with [³²P]-NAD, and the ADP-ribosylation state of glutamate dehydrogenase was measured by immunoprecipitation and subsequent autoradiography. […] Moreover, a small amount of labeled glutamate dehydrogenase could be detected in a complex with Sirt4 (FIG. 5E).

T1 sequence (P00367 54-558): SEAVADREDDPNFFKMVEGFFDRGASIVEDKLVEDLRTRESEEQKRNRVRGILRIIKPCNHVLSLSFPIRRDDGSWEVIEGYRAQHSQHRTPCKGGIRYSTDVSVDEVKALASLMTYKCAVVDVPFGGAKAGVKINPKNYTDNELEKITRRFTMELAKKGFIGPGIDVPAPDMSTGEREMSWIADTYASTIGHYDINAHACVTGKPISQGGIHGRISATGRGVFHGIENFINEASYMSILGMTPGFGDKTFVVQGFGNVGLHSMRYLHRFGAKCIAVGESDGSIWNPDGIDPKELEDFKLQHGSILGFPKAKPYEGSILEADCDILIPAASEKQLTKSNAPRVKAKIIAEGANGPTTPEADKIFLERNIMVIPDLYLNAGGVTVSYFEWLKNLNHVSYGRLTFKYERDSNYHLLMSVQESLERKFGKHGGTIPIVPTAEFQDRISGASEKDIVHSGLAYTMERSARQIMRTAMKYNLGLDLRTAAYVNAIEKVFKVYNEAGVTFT

B1: human Sirt4 with a C-terminal FLAG (enzyme)
chain: IGLFVPASPPLDPEKVKELQRFITLSKRLLVMTGAGISTESGIPDYRSEKVGLYARTDRRPIQHGDFVRSAPIRQRYWARNFVGWPQFSSHQPNPAHWALSTWEKLGKLYWLVTQNVDALHTKAGSRRLTELHGCMDRVLCLDCGEQTPRGVLQERFQVLNPTWSAEAHGLAPDGDVFLSEEQVRSFQVPTCVQCGGHLKPDVVFFGDTVNPDKVDFVHKRVKEADSLLVVGSSLQVYSGYRFILTAWEKKLPIAILNIGPTRSDDLACLKLNSRCGELLPLIDPC
notes: Overexpressed in 293T cells from phSirt4FLAG; Used in cell lysate or immunoprecipitated and eluted with FLAG peptide; also called hSirt4-FLAG; Sirt4-FLAG; not shown: C-terminal FLAG tag from vector pCMV-FLAG-4A
As to B1, the binding result is reported as “binds”.

For the origin of these results see patent publication US20070099830A1 (MIT, published 2007).
